From patent US20250281611A1 (BIOSCEPTRE AUST, published 2025)

T1: CD19 (UniProt P15391 20-556, limits assumed)
T1 construct: whole, on cells; also called CD19 on JeKo-1
T1 sequence (looked up): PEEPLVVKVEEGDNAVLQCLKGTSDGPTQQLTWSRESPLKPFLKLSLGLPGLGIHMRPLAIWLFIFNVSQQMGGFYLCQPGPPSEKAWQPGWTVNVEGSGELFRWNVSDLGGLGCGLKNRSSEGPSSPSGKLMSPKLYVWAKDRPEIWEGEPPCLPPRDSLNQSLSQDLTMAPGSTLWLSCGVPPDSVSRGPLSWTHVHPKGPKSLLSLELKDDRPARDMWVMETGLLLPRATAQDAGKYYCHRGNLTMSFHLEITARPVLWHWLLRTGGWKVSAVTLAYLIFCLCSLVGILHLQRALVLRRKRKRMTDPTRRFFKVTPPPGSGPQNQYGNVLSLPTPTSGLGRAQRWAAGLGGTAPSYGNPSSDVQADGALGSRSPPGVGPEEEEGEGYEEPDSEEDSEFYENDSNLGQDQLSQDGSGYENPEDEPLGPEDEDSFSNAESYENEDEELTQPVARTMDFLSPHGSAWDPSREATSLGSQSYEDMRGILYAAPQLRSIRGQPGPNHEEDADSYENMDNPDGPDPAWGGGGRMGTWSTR

T2: CD79B (UniProt P40259 29-229, limits assumed)
T2 construct: whole, on cells
T2 sequence (looked up): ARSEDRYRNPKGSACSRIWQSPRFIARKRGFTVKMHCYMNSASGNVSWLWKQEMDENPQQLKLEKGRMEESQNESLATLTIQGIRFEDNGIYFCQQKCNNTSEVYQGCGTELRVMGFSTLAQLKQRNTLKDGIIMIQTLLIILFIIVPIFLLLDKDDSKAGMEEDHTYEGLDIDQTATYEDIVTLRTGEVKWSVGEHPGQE

T3: CD37 (UniProt P11049 1-281, limits assumed)
T3 construct: whole, on cells
T3 sequence (looked up): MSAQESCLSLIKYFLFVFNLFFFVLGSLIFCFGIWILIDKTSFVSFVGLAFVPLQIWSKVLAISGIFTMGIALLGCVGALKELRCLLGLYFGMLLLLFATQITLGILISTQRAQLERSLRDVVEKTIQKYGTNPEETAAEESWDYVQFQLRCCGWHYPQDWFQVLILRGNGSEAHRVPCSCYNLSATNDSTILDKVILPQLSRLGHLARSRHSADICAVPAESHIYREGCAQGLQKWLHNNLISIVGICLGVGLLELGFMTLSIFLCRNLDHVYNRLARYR

B1: CD19 BRIDGE variant B31 (Fab)
heavy: EVQLVESGGGLVKPGGSLKLSCAASGYTFTSYVMHWVRQAPGKGLEWIGYINPYNDGTKYNEKFQGRVTISSDKSISTAYMELSSLRSEDTAMYYCARGTYYYGTRVFDYWGQGTLVTVSSASTKGPSVFPLAPSSKSTSGGTAALGCLVKDYFPEPVTVSWNSGALTSGVHTFPAVLQSSGLYSLSSVVTVPSSSLGTQTYICNVNHKPSNTKVDKKVEPKSCHHHHHH
light: DFPGHNYTTRNILPGLNITSEPKSSDKTHTGGGGSDIVMTQSPATLSLSPGERATLSCRSSKSLQNVNGNTYLYWFQQKPGQSPQLLIYRMSNLNSGVPDRFSGSGSGTEFTLTISSLEPEDFAVYYCMQHLEYPITFGAGTKLEIKRTVAAPSVFIFPPSDEQLKSGTASVVCLLNNFYPREAKVQWKVDNALQSGNSQESVTEQDSKDSTYSLSSTLTLSKADYEKHKVYACEVTHQGLSSPVTKSFNRGEC
B2: CD19 BRIDGE variant B36 (Fab)
heavy: B1 heavy
light: DFPGHNYTTRNILPGLNITSTFHKTSGSGKGGGGSEPKSSDKTHTGGGGSDIVMTQSPATLSLSPGERATLSCRSSKSLQNVNGNTYLYWFQQKPGQSPQLLIYRMSNLNSGVPDRFSGSGSGTEFTLTISSLEPEDFAVYYCMQHLEYPITFGAGTKLEIKRTVAAPSVFIFPPSDEQLKSGTASVVCLLNNFYPREAKVQWKVDNALQSGNSQESVTEQDSKDSTYSLSSTLTLSKADYEKHKVYACEVTHQGLSSPVTKSFNRGEC
B3: CD19 BRIDGE variant B32 (Fab)
heavy: B1 heavy
light: DFPGHNYTTRNILPGLNITSGSEPKSSDKTHTGGGGSDIVMTQSPATLSLSPGERATLSCRSSKSLQNVNGNTYLYWFQQKPGQSPQLLIYRMSNLNSGVPDRFSGSGSGTEFTLTISSLEPEDFAVYYCMQHLEYPITFGAGTKLEIKRTVAAPSVFIFPPSDEQLKSGTASVVCLLNNFYPREAKVQWKVDNALQSGNSQESVTEQDSKDSTYSLSSTLTLSKADYEKHKVYACEVTHQGLSSPVTKSFNRGEC
B4: CD19 BRIDGE variant B33 (Fab)
heavy: B1 heavy
light: DFPGHNYTTRNILPGLNITSGGGGSEPKSSDKTHTGGGGSDIVMTQSPATLSLSPGERATLSCRSSKSLQNVNGNTYLYWFQQKPGQSPQLLIYRMSNLNSGVPDRFSGSGSGTEFTLTISSLEPEDFAVYYCMQHLEYPITFGAGTKLEIKRTVAAPSVFIFPPSDEQLKSGTASVVCLLNNFYPREAKVQWKVDNALQSGNSQESVTEQDSKDSTYSLSSTLTLSKADYEKHKVYACEVTHQGLSSPVTKSFNRGEC
B5: CD19 BRIDGE variant B35 (Fab)
heavy: B1 heavy
light: DFPGHNYTTRNILPGLNITSTFHKTSGSGKGSEPKSSDKTHTGGGGSDIVMTQSPATLSLSPGERATLSCRSSKSLQNVNGNTYLYWFQQKPGQSPQLLIYRMSNLNSGVPDRFSGSGSGTEFTLTISSLEPEDFAVYYCMQHLEYPITFGAGTKLEIKRTVAAPSVFIFPPSDEQLKSGTASVVCLLNNFYPREAKVQWKVDNALQSGNSQESVTEQDSKDSTYSLSSTLTLSKADYEKHKVYACEVTHQGLSSPVTKSFNRGEC
B6: CD19 BRIDGE variant B34 (Fab)
heavy: B1 heavy
light: DFPGHNYTTRNILPGLNITSTFHKTSGSGKEPKSSDKTHTGGGGSDIVMTQSPATLSLSPGERATLSCRSSKSLQNVNGNTYLYWFQQKPGQSPQLLIYRMSNLNSGVPDRFSGSGSGTEFTLTISSLEPEDFAVYYCMQHLEYPITFGAGTKLEIKRTVAAPSVFIFPPSDEQLKSGTASVVCLLNNFYPREAKVQWKVDNALQSGNSQESVTEQDSKDSTYSLSSTLTLSKADYEKHKVYACEVTHQGLSSPVTKSFNRGEC
B7: CD79B bridging molecule (E200 + CD79B binder, Polatuzumab, B025) (Fab, V domains shown)
VH: EVQLVESGGGLVQPGGSLRLSCAASGYTFSSYWIEWVRQAPGKGLEWIGEILPGGGDTNYNEIFKGRATFSADTSKNTAYLQMNSLRAEDTAVYYCTRRVPIRLDYWGQGTLVTVSS
VL: DIQLTQSPSSLSASVGDRVTITCKASQSVDYEGDSFLNWYQQKPGKAPKLLIYAASNLESGVPSRFSGSGSGTDFTLTISSLQPEDFATYYCQQSNEDPLTFGQGTKVEIKR
B8: ROR1 bridging molecule (E200 + ROR-1 binder, clone D10v3, B044) (Fab, V domains shown)
VH: QVQLKESGPGLVAPSQTLSITCTVSGFSLTSYGVHWVRQPPGKGLEWLGVIWAGGFTNYNSALKSRLSISKDNSKSQVLLKMTSLQTDDTAMYYCARRGSSYSMDYWGQGTSVTVSS
VL: EIVLSQSPAITAASLGQKVTITCSASSNVSYIHWYQQRSGTSPRPWIYEISKLASGVPVRFSGSGSGTSYSLTISSMEAEDAAIYYCQQWNYPLITFGSGTKLEIQR
B9: CD37 bridging molecule (E200 + CD37 binder, Otlertuzumab, B026) (Fab, V domains shown)
VH: EVQLVQSGAEVKKPGESLKISCKGSGYSFTGYNMNWVRQMPGKGLEWMGNIDPYYGGTTYNRKFKGQVTISADKSISTAYLQWSSLKASDTAMYYCARSVGPFDSWGQGTLVTVSS
VL: EIVLTQSPATLSLSPGERATLSCRASENVYSYLAWYQQKPGQAPRLLIYFAKTLAEGIPARFSGSGSGTDFTLTISSLEPEDFAVYYCQHHSDNPWTFGQGTKVEIKR

What was measured:
[1] = molecular target: T4, nfP2X7 CAR 1; experiment: flow cytometry, anti-His-FITC, MFI on EGFR+ (CAR+) over EGFR- (CAR-) T cells
T4 construct: CAR-positive cells gated by the co-expressed EGFR marker; also called nfP2X7 targeted CAR; nfP2X7 CAR on EGFR+ T cells
In short: (§1)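 CAR T cells incubated with BRiDGE variants at saturating concentrations; bound BRiDGE detected with anti-His-FITC by flow cytometry. EGFR marks CAR expression. Value is median fluorescence intensity on EGFR+ (CAR+) cells divided by that on EGFR− (CAR−) cells.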

[2] = molecular target: T4, nfP2X7 CAR 1; experiment: flow cytometry, anti-His-FITC, MFI on EGFR+ (CAR+) T cells over background 0.44
In short: as §1

[3] = molecular target: T1, CD19; experiment: flow cytometry, JeKo-1 cells, BIL03s-AF647 detection, MFI over no-bridge control
Procedure: (§2) JeKo-1 cells were incubated with different CD19 BRiDGE variants at saturating concentrations. […] The MFI intensity correlates with the number of secondary bound antibodies bound to the CD19 BRiDGE variants that are only detected if they are bound to the JeKo-1 cells. MFI: median fluorescence intensity. BLitz: Bio-Layer interferometry (BLI) technology using HIS-tag identification tips. […] The higher the MFIR, the stronger the binding.

[4] = molecular target: T1, CD19; experiment: flow cytometry, JeKo-1 cells, anti-His-FITC detection, MFI over no-bridge control
Procedure: as §2

[5] = molecular target: T4, nfP2X7 CAR 1; experiment: flow cytometry, nfP2X7 CAR 1 T cells (EGFR+ gate), anti-His-FITC detection
[6] = molecular target: T1, CD19; experiment: flow cytometry, JeKo-1 cells, bridge at saturating conc., BIL03s-AF647 detection
Procedure: as §2

[7] = molecular target: T1, CD19; experiment: flow cytometry, JeKo-1 cells, bridge at saturating conc., anti-His-FITC detection
Procedure: as §2

[8] = molecular target: T2, CD79B; experiment: flow cytometry, JeKo-1 cells
[9] = molecular target: T5, ROR1 (UniProt Q01973 30-937, limits assumed); experiment: flow cytometry, JeKo-1 cells
T5 construct: whole, on cells

[10] = molecular target: T3, CD37; experiment: flow cytometry, JeKo-1 cells

Binder | HisTag MFI Ratio of EGFR+/EGFR- [1] | HisTag MFI Ratio (background 0.44) [2] | MFIR BIL03 AF647 [3] | MFIR HisTag FITC [4] | MFI HisTag FITC in EGFR+ Population [5] | MFI Bil03 AF647 [6] | MFI HisTag FITC [7] | binding result [8] | binding result [9] | binding result [10]
B1 | 3.9 | 6.1 | 12.7 | 2.77 | 2.67 | 5.83 | 2.13 | – | – | –
B2 | 4.2 | 5.5 | 19.9 | 2.97 | 2.41 | 9.15 | 2.29 | – | – | –
B3 | 4 | 5.9 | 19.5 | 2.99 | 2.61 | 8.99 | 2.3 | – | – | –
B4 | 3.9 | 5.4 | 15.5 | 2.92 | 2.39 | 7.12 | 2.25 | – | – | –
B5 | 4.1 | 5.7 | 20.6 | 3 | 2.51 | 9.49 | 2.31 | – | – | –
B6 | 4.3 | 5.5 | 15.3 | 2.84 | 2.41 | 7.04 | 2.19 | – | – | –
B7 | – | – | – | – | – | – | – | binds | – | –
B8 | – | – | – | – | – | – | – | – | binds | –
B9 | – | – | – | – | – | – | – | – | – | binds
